One block for each binder: values may come before it.
Experiments:
[1] = biological target: T1, C99, COOH-terminal fragment of 99 amino acids of APP (human, UniProt P05067 672-770); experiment: anti-myc immunoprecipitation from γ30 cell lysates, western blot
T1 construct: domain: COOH-terminal fragment of 99 amino acids (C99); Produced in cells from APP by processing; also endogenous C99 of human brain
Protocol: (§1) FIG. 4 is photographs of western blots establishing that the first 102 amino acids of BRI2 are necessary to inhibit the efficient cleavage of C99 and that the same region is necessary for the binding of BRI2 to C99 of APP. […] HC indicates the heavy chain of myc antibody used in the immunoprecipitation.
(§2) Immunoprecipitation and western blot. Unless otherwise noted, all immunoprecipitation procedures were performed at 4° C. The transfected cells were lysed in Buffer A [20 mM Hepes/NaOH pH 7.4, 1 mM EDTA, 1 mM DTT, 150 mM NaCl, 0.5% (w/v) TritonX-100] containing 10% (v/v) Glycerol for 30 min, and the lysates were cleared at 20,000 g for 10 min. For FLAG immunoprecipitation, the cleared lysates were mixed with 20 μl of FLAG-M2 beads (Sigma) for 2 hours, and washed three times with Buffer A. The precipitates were boiled in 60 μl of 2×SDS sample buffer and subjected to western blot. For other immunoprecipitation, the cleared lysates were incubated with antibodies for one hour, and mixed with 20 μl of protein A/G beads (Pierce), washed and processed as above. Human brains (a generous gift of Dr. Peter Davies) were homogenized in Buffer A containing 10% (v/v) Glycerol using a Dounce homogenizer. The proteins were extracted overnight with the protein concentration at 5 mg/ml. Extracted proteins were cleared at 20,000 g for one hour. The supernatants were incubated with the indicated antibodies and protein A/G beads blocked with PBS containing 1% (w/v) BSA. Precipitants were washed and processed as described above.

[2] = biological target: T2, Amyloid precursor protein (APP), full length (human, UniProt P05067-4 18-695); experiment: as above
T2 construct: whole, on cells; Used for transfected APP (HeLa), stably expressed APP (HEK293APP, γ30 cells) and endogenous APP of human brain homogenates; also called full length APP; mature, glycosylated APP
Protocol: as §1, §2

binding result [1]: no binding
binding result [2]: no binding
B1: myc-tagged BRI2 C-terminal deletion, first 93 amino acids (other)
chain: MVKVTFNSALAQKEAKKDEPKSGEEALIIPPDAVAVDCKDPDDVVPVGQRRAWCWCMCFGLAFMLAGVILGGAYLYKYFALQPDDVYYCGIKY
notes: Expressed in γ30 cells; also called BRI2 1-93; not shown: myc tag

binding result [1]: no binding
binding result [2]: no binding
B2: myc-tagged BRI2 C-terminal deletion, first 80 amino acids (other)
chain: MVKVTFNSALAQKEAKKDEPKSGEEALIIPPDAVAVDCKDPDDVVPVGQRRAWCWCMCFGLAFMLAGVILGGAYLYKYFA
notes: Expressed in γ30 cells; also called BRI2 1-80; not shown: myc tag
